This series is described as follows: protein stability index of a GFP-peptide fusion (GPS, HEK-293T) (PSI 1-6); higher = more stable.
[1] abbreviates: treatment: DMSO, c terminus: a fixed tail appended.
[2] abbreviates: treatment: MLN4924 1 uM, 8 h, c terminus: a fixed tail appended.

± gives the standard deviation.
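Further: 24-mer peptide tiles fused after GFP, lentivirally expressed, FACS-sorted into six equal bins by GFP/DsRed ratio, decoded by Illumina sequencing, PSI is the read-weighted mean bin number.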

VYLLGNPVVWWLNLLSIALYLLSG [POMT2]: the protein stability index is 3.31 ± 0.95 under setting [1] and 2.96 ± 0.56 under setting [2].

Take VYPRPPEPREFSSRNFGVRNQGNF [ZC2HC1C]: the protein stability index is 3.24 ± 0.15 under setting [1] and 3.24 ± 0.29 under setting [2].

Turning to WAPASEGLKPGPEDGPGKEEAPEL [SERTAD1], the protein stability index is, setting by setting: under setting [1], 5.5 ± 0.2; under setting [2], 5.46 ± 0.41.

For WASCLQYDFDTQYAFVGDYSGQIT [WDFY1], the protein stability index is, setting by setting: under setting [1], 2.43 ± 0.39; under setting [2], 2.2 ± 0.21.

For WEELLTMKVEAKSHLQWQESRLKR [ZSCAN9], the protein stability index reads like this: under setting [1], 3.65 ± 0.18; under setting [2], 3.59 ± 0.37.

In turn, WIRICRPGSIIGPQQHFLEEKQAS [CDC14A] gave a protein stability index under setting [1] of 2.18 ± 0.46 and a protein stability index under setting [2] of 2.36 ± 0.48.

Take WMEILILGVVYRSLSFEDELVYAD [ESRRG]: the protein stability index by setting is: under setting [1], 3.77 ± 0.27; under setting [2], 2.68 ± 0.25.

As for WNITKLSIEYDSEPFGKERDAAIK [CRY1], the protein stability index is 2.9 ± 0.29 under setting [1] and 2.9 ± 0.28 under setting [2].

In the case of WNQILDPWVYILLRKAVLKNLYKL [PTGFR], the protein stability index came out at 2.7 ± 1.1 under setting [1] and 2.03 ± 0.93 under setting [2].

As to WREFHYIQSKLGIVSLLLGTIHAL [STEAP1], the protein stability index is, setting by setting: under setting [1], 2.96 ± 0.56; under setting [2], 3.15 ± 0.69.

On to WVLLFTPCSFVCWYRPMYKAFRSD [SCAMP3], for which the protein stability index reads like this: under setting [1], 2.92 ± 0.31; under setting [2], 3 ± 0.37.

In turn, YDAYRTDLEELSLGPRDAGTRGRL [ARFIP2] showed a protein stability index under setting [1] of 4.1 ± 0.29 and a protein stability index under setting [2] of 4.35 ± 0.15.

For YDDVRRCCSSADICPKCWTLMTMA [PRIM1], the protein stability index by setting is: under setting [1], 3.34 ± 0.17; under setting [2], 3.4 ± 0.36.

With YDITKEETFSTLKNWVKELRQHGP [RAB22A], the protein stability index by setting is: under setting [1], 2.85 ± 0.49; under setting [2], 3.24 ± 0.16.

Turning to YFEGAPFPHPLWLRDTYKLWVPQP [PWWP2B], the protein stability index amounted to 2.05 ± 0.24 under setting [1] and 2.18 ± 0.3 under setting [2].

In the case of YGHCTAGGEGVEVELLHNTSYTRQ [SCNN1D], the protein stability index reads like this: under setting [1], 3.71 ± 0.22; under setting [2], 3.8 ± 0.25.

Take YGYLPEDKVLGTFEFDETSFWNSS [KLHDC2]: the protein stability index reads like this: under setting [1], 2.66 ± 0.25; under setting [2], 2.98 ± 0.34.

Take YILDNETNFVVQVSVFIGVLIDLW [CLPTM1]: the protein stability index stood at 2.74 ± 0.77 under setting [1] and 2.59 ± 0.7 under setting [2].

As for YKKGIIRKPDISQRLVYQFVHPI [SPDEF], the protein stability index runs as follows: (treatment: DMSO, c terminus: native) 2.43 ± 0.48; (treatment: MLN4924 1 uM, 8 h, c terminus: native) 2.63 ± 0.4.

Consider YKPNPQIYVKLIEECTDLQKEGEF [OAS1], for which the protein stability index by setting is: under setting [1], 3.54 ± 0.28; under setting [2], 3.53 ± 0.19.

For YLAFAASNVRGSLNVNLNSVVLRR [DUSP5], the protein stability index was determined as 2.41 ± 0.24 under setting [1] and 2.69 ± 0.24 under setting [2].

In turn, YLATEYLETHFRDVSSTEEFLELS [GAN] had a protein stability index under setting [1] of 3.13 ± 0.29 and a protein stability index under setting [2] of 3.2 ± 0.35.

Regarding YLESETETTEAIDDEGWLHSGDLG [ACSBG2], the protein stability index worked out at 5.25 ± 0.14 under setting [1] and 5.497 ± 0.035 under setting [2].

Regarding YLIIRTLGKLIPRHQSIFKSNGFF [CDKL4], the protein stability index under setting [1] amounted to 2.74 ± 1.3 and the protein stability index under setting [2] stood at 2.72 ± 1.8.

For the sequence YLRDSSPAPCADGPAGGLADLSSG [PWWP2B], the protein stability index stood at 4.78 ± 0.2 under setting [1] and 4.8 ± 0.11 under setting [2].

With YNLSPEADESVLWQLFGPFGAVTN [ELAVL3], the protein stability index runs as follows: under setting [1], 2.55 ± 0.28; under setting [2], 2.51 ± 0.091.

Consider YNPPKDDGSTYKIELEGISVMVMR [GAN], for which the protein stability index turned out to be 2.14 ± 0.28 under setting [1] and 2.24 ± 0.22 under setting [2].

In turn, YPASTSQDSFEAAGNSTSGSRAGA [KCNA3] came in with a protein stability index under setting [1] of 5.21 ± 0.24 and a protein stability index under setting [2] of 5.2 ± 0.35.

YPDAEDPQLGLDGPGEPDVRDGFS [PSD2]: the protein stability index is, setting by setting: under setting [1], 5.51 ± 0.31; under setting [2], 5.46 ± 0.084.

For the sequence YPPFWDEDQHKLYQQIKAGAYDFP [CAMK2B], the protein stability index came out at 2.85 ± 0.35 under setting [1] and 3.11 ± 0.056 under setting [2].

As to YQELMSLKLALDMEIATYRKLLES [KRT71], the protein stability index by setting is: under setting [1], 2.38 ± 0.32; under setting [2], 2.16 ± 0.22.

In the case of YQSGGRLKRPVNVPFDIFTEEVKF [KCNA4], the protein stability index is, setting by setting: under setting [1], 2.42 ± 0.26; under setting [2], 2.8 ± 0.57.

Turning to YRFASAGDDGIVVVWNAQTGEKLL [WDR41], the protein stability index came out at 2.43 ± 0.17 under setting [1] and 2.75 ± 0.1 under setting [2].

For the sequence YSCPATNECEITKRRRKSCQACRF [ESRRG], the protein stability index reads like this: under setting [1], 3.59 ± 0.51; under setting [2], 4.15 ± 0.29.

On to YSTRYGSPKRQLQFYRNLGKSGLR [KCNAB2], for which the protein stability index came out at 2.59 ± 0.18 under setting [1] and 2.69 ± 0.19 under setting [2].

YTVSATAPGYDPETVTVTVGPAEP [CPN1]: the protein stability index is, setting by setting: under setting [1], 3.61 ± 0.13; under setting [2], 3.83 ± 0.39.

In turn, YVQTVDFMRTDNTCVNLLLEASNY [KLHL13] displayed a protein stability index under setting [1] of 2.6 ± 0.71 and a protein stability index under setting [2] of 2.6 ± 0.66.

In the case of YVRDRADLNKDKPVIPAAALAGYT [ETS1], the protein stability index runs as follows: under setting [1], 2.44 ± 0.6; under setting [2], 3.35 ± 0.78.

Sequence YVRRLDFFEKPDYDYLRKLFTDLF [CSNK1G3] yielded a protein stability index under setting [1] of 2.45 ± 0.52 and a protein stability index under setting [2] of 2.06 ± 0.27.

Values taken from the supplement of paper PMC10567573.
